PMC2650715 (DNA repair, 2008)
Substitutions are numbered along the chain they refer to.

Assays:
Assay in all cases: pull-down
[1] = target: T1, Schizosaccharomyces pombe Rdh54 (S. pombe, UniProt Q09772 1-811)
T1 sequence (looked up): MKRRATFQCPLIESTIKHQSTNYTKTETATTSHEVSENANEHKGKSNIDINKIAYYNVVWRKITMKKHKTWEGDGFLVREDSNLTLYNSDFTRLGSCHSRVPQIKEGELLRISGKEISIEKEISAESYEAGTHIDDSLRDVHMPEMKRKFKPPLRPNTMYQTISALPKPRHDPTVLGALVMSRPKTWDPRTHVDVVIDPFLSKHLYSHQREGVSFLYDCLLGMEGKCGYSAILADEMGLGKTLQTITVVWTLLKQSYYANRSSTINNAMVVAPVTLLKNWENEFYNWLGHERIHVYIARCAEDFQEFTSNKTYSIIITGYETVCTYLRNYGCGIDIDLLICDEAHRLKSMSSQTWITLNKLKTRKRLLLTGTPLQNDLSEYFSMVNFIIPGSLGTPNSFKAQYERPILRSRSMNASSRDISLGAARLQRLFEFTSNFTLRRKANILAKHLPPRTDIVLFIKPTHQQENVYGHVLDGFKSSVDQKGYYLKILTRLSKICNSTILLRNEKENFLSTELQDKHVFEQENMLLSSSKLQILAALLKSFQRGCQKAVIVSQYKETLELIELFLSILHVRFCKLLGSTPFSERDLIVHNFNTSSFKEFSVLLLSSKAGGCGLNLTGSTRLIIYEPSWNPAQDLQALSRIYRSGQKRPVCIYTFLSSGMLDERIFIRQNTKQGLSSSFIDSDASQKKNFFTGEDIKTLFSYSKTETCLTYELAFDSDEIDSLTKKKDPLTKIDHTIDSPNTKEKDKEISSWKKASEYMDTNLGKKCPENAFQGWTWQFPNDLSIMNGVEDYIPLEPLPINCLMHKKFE

[2] = target: T2, Saccharomyces cerevisiae Rdh54 (S. cerevisiae, UniProt P38086 1-958)
T2 sequence (looked up): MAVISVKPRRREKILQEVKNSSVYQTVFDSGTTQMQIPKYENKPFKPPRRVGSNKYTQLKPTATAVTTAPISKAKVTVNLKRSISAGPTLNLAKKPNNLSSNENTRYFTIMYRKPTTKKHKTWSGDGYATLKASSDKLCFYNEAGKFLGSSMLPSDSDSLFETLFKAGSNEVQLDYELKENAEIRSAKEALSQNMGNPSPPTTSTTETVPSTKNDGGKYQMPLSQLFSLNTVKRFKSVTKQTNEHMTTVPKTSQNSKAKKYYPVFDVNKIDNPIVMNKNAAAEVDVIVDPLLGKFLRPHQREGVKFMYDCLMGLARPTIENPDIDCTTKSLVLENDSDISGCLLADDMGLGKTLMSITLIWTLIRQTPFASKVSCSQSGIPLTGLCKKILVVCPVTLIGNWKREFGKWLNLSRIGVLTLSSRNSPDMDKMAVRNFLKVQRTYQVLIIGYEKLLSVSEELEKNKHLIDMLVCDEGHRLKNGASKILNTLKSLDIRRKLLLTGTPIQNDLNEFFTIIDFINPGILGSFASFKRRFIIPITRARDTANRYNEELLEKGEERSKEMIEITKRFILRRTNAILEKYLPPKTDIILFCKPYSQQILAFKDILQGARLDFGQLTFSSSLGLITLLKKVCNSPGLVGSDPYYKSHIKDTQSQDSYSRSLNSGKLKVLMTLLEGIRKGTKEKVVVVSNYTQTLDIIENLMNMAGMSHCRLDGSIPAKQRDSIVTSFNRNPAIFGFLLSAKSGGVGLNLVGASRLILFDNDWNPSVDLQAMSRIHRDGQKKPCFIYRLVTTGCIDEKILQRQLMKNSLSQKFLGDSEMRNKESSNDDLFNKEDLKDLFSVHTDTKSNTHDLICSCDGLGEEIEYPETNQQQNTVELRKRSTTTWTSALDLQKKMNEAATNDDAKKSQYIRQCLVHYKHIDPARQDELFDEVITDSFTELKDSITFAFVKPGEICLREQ

[3] = target: T3, Saccharomyces cerevisiae Rdh54 K352R mutant variant (S. cerevisiae, UniProt P38086 1-958, K352R)
T3 sequence (looked up): T2 sequence (looked up) with K352R

binding result [1]: binds | binding result [2]: binds | binding result [3]: binds
B1: Schizosaccharomyces pombe Dmc1 (enzyme, S. pombe, UniProt O42634 1-332, looked up)
chain: MEEFAEGNDDEQMIFSDIEDLTAHGIGMTDIIKLKQAGVCTVQGVHMSTKRFLLKIKGFSEAKVDKLKEAASKMCPANFSTAMEISQNRKKVWSISTGSEALNGILGGGIQSMSITEVFGEFRCGKTQMSHTLCVTAQLPRDMGGAEGKVAFIDTEGTFRPDRIKAIAERFGVDADQAMENIIVSRAYNSEQQMEYITKLGTIFAEDGQYRLLIVDSIMALFRVDYSGRGELSERQQKLNIMLARLNHISEEFNVAVFVTNQVQADPGAAMMFASNDRKPVGGHVMAHASATRLLLRKGRGEERVAKLNDSPDMPEAECSYVITPGGIADVS
modifications: covalently coupled to Affi-Gel 15 beads
